Experimental data from patent publication US7148193B2, “Compounds that bind to growth hormone receptor” (Antyra, Inc., priority 1997, dated 2006).
Several values for one entry are separate records, joined by “and”; a condition that tells them apart may be missing. Equal values may be shown once. Read-outs that look alike come from different tables or passages of the source.

Experiments:
rGHBP [1] = target: T1, rGHBP (Rattus norvegicus, UniProt P16310); assay: Phage ELISA binding and competition on rGHBP coated wells; details: ELISA signal
T1 construct: 1–48 of GHBP; The 3′ oligo used for this reaction encoded the mutation L43R (CTG→AGA); The second PCR reaction amplified the DNA encoding amino acids 38–260; 6xHis; made in house
T1 sequence (P16310 19-278 isoform P16310-2): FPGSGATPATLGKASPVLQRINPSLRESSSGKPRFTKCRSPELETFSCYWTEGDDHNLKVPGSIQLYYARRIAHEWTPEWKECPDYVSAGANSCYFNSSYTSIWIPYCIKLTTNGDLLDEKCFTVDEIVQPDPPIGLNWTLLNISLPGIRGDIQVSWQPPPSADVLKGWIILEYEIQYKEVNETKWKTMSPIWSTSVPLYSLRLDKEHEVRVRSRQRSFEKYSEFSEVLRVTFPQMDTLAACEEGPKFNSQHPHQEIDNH
Method: For analysis of individual clones, colonies were picked and phage prepared as described above. Microtiter wells were coated and blocked as described above. Wells were coated with either rGHBP or a control IgG MAb. Phage resuspended in MPBS were added to duplicate wells (100 μl/well) and incubated at room temperature for 1 hr. The phage solution was then removed, and the wells were washed three times with PBS at room temperature. Anti-M13 antibody conjugated to horseradish peroxidase (Pharmacia Biotech) was diluted 1:3000 in MPBS and added to each well (100 μl/well). Incubation was for another hour at room temperature, followed by PBS washes as described. Color was developed by addition of ABTS solution (100 μl/well; Boehringer). Color development was stopped by adjusting each well to 0.5% SDS. Plates were analyzed at 405 nm using a SpectraMax 340 plate reader (Molecular Devices) and SoftMax Pro software. Data points were averaged after subtraction of appropriate blanks. A clone was considered “positive” if the A405 of the well was >2-fold over background. […]
These clones were next analyzed for binding to the receptor's active sites (FIG. 2B). Competitions of phage binding were done both with the cognate ligand (i.e., GH) and with a specific target-neutralizing MAb 2C3 (Wang, B. S., et al. Mol. Cellular Endocrinology, vol. 116, p. 223–226, 1996).
(§1) Clones were tested for the presence of E-tag and binding to ‘hu’ GHBP, rGHBP, or BSA-coated wells. Those having specific GHBP binding (i.e., at least 2 fold greater binding to the GHBP than BSA) and with an E-tag positive signal were subjected to DNA sequencing. Three different clones were isolated and tested a second time against GHBP plus and minus GH (1 μM) or BSA (1 μM) coated wells as described. In these tests, huGH was used as competitor with ‘hu’ GHBP coated wells and bovineGH was used as a competitor with rat GHBP coated wells. […] The following open reading frame insertion including the DYKD (SEQ ID NO:79) amino terminal tag and up to the C-terminal E-tag was obtained for these clones; and is shown in Table III: […]

rGHBP [2] = target: T1, rGHBP; assay: Time-resolved fluorometric detection (TRFD) of specific bLigand binding to rGHBP and its competition; details: for IC50: competitor added 1 hr before bLigand
Method: For this invention, saEu forms a ternary complex with bP and rGHBP (i.e., the rGHBP:bP:saEu complex). As described herein, the TRFD assay is performed using biotinylated GH (bGH) as bLigand. Biotinylated H5-mutant peptides bP#447 (SEQ ID NO:11) and bP#418 (SEQ ID NO:12) are also used as bLigand (see below). The TRFD assay described herein faithfully reports the competition of ligand binding to the active site of rGHR. To perform the TRFD assays, soluble rGHBP is attached to the surface of microtiter wells, then incubated with bP. Unbound bP is than washed away and (sa)Eu is added to complex with receptor bound bP. The rGHBP:bP bound (sa)Eu is then converted into its highly fluorescent state and detected by TRFD.
Wells were coated with rGHBP(100 ng/well) overnight as described. ED50 and IC50 were calculated from analysis of specific bLigand binding to rGHBP. Competitors were added 1 hr prior to addition of bLigand as described.
rGHBP (50–200 μg/ml in 50 mM NaHCO3) was coated onto low-fluorescence MaxiSorp (Nunc) plates (100 μl/well) overnight at 4° C. The plates were blocked with PBS containing 2% non-fat milk and 0.05% BSA for 2 hr at room temperature, followed by three PBS washes. For competitions, serial dilutions of unlabelled growth hormone (0.1 nM-100 nM) or MAb 2C3 (0.67–67 nM) were added to the plates (100 μl/well) and incubated at room temperature for 1–2 hr. Biotinylated peptide or biotinylated GH (10× concentrations) were incubated in blocking buffer for 30 min to decrease non-specific binding. Ten microliters of the 10× concentrated material was added to the plates and incubated at room temperature for 1 hr to overnight.
The plates were then washed five times with Tris-buffered saline (pH 7.5) containing 0.1% Tween-20 (TTBS). To each well, 100 μl of europium-labeled streptavidin in DELFIA assay buffer (100 mM Tris-HCl, pH 7.8; 150 mM NaCl; 0.5% BSA; 0.05% bovine Ig; 0.05% NaN3; 0.01% Tween-20) was added and incubated for 1.5 hr at room temperature. The plates were then washed five times with TTBS and tapped dry. Subsequently, 100 μl of DELFIA enhancement solution (100 mM acetone-potassium hydrogen phthalate, pH 3.2; 15 mM 2-naphtyltrifluoroacetate; […] tri(n-octyl)-phosphine oxide; 0.1% Triton X-100) was added to each well, and the plates were shaken for 10 min at room temperature. Fluorescence of each sample well was measured at 615 nm using a DELFIA 1234 fluorometer (EG&G Wallac). General procedure and references as described by Wallac are available in “Lanthanide labeling for time-resolved fluorometry”: Wallac publication 1244–1126-03.

[3] = target: T2, ‘hu’ GHBP (humanized rat GHBP) (Rattus norvegicus, UniProt P16310, L61R); assay: Phage ELISA binding and competition on 'hu' GHBP coated wells; details: ELISA signal
T2 construct: 1–48 of GHBP; The 3′ oligo used for this reaction encoded the mutation L43R (CTG→AGA); The second PCR reaction amplified the DNA encoding amino acids 38–260; 6xHis; made in house
T2 sequence (P16310 19-278 isoform P16310-2 L61R): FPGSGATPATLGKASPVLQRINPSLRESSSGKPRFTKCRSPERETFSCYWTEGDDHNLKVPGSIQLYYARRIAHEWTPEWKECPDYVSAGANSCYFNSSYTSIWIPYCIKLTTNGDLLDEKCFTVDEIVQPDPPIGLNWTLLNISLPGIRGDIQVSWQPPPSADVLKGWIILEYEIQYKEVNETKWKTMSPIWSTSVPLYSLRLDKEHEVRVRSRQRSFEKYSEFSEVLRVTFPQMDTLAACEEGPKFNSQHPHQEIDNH
Method: For analysis of individual clones, colonies were picked and phage prepared as described above. Microtiter wells were coated and blocked as described above. Wells were coated with either rGHBP or a control IgG MAb. Phage resuspended in MPBS were added to duplicate wells (100 μl/well) and incubated at room temperature for 1 hr. The phage solution was then removed, and the wells were washed three times with PBS at room temperature. Anti-M13 antibody conjugated to horseradish peroxidase (Pharmacia Biotech) was diluted 1:3000 in MPBS and added to each well (100 μl/well). Incubation was for another hour at room temperature, followed by PBS washes as described. Color was developed by addition of ABTS solution (100 μl/well; Boehringer). Color development was stopped by adjusting each well to 0.5% SDS. Plates were analyzed at 405 nm using a SpectraMax 340 plate reader (Molecular Devices) and SoftMax Pro software. Data points were averaged after subtraction of appropriate blanks. A clone was considered “positive” if the A405 of the well was >2-fold over background.
Humanized GHBP (‘hu’ GHBP) contained the single amino acid change of rat GHBP amino acids L43 to R43, and was capable of binding human GH, as shown in FIG. 9. Direct immobilization of ‘hu’ GHBP was done as described earlier for panning of the secondary H5 library against rat GHBP and used inputs of ‘hu’ GHBP, prepared as described earlier of 100 μl per well of […] protein. Panning was performed with or without H10 peptide (SEQ ID NO:9; 30 μM) for 4 rounds, and 96 clones were picked.
as §1

‘hu’ GHBP = target: T3, ‘hu’ GHBP (Rattus norvegicus, UniProt P16310, L61R); assay: Species specificity of binding by ELISA and BIAcore, 'hu' GHBP; details: in words
T3 construct: 1–48 of GHBP; The 3′ oligo used for this reaction encoded the mutation L43R (CTG→AGA); The second PCR reaction amplified the DNA encoding amino acids 38–260; 6xHis; made in house
T3 sequence (P16310 19-278 isoform P16310-2 L61R): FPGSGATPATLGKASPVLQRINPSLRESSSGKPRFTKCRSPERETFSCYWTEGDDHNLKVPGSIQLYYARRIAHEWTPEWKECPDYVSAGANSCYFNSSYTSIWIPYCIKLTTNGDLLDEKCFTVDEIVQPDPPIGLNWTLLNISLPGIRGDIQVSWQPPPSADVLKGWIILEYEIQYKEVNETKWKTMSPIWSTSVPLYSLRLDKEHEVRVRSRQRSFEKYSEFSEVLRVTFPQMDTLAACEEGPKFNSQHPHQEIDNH
Method: Wells were coated with either recombinant rGHBP or ‘hu’ GHBP (100 ng/well). Additions of H5 (SEQ ID NO:8) and H10 (SEQ ID NOS:9, 80, and 81) phage (10^10/well) and detection were made as described. […] Streptavidin chips were coated with H5 (SEQ ID NO:8) to 1100 RU as described and rGHBP or ‘hu’ GHBP (500 μg/ml) injected as 30 μl samples.
Growth hormone receptors from different species bind human GH as well as their own GH, however human GHR only binds human or monkey GH. […] The sequence of rGHBP was altered by PCR to create a “humanized” version (‘hu’ GHBP; FIG. 9A). Partially purified ‘hu’GHBP (FIG. 9B) was tested for binding using ELISA and BIAcore analysis. […] This was confirmed by BIAcore analysis (FIG. 10B).
The biotinylated control peptide (SEQ ID NO:10) was immobilized onto one flow cell of a SA-5 (streptavidin coated) sensor chip to a final density of 700 RU. On a second flow cell, either hGH (1100 RU final density), H5WT peptide (SEQ ID NO:8; 1100 RU final density), or bGH (730 RU final density) was immobilized. GHBP (either rat or humanized) was injected at a concentration of 500 μg/ml with a flow rate of 5 μl/min. Background binding to the control surface was subtracted prior to further analysis.

445: H5-mutant peptide SEQ ID NO:13 (DYKDLCQRLGVGWPGWLAGWCA; #445 peptide) [compound 445]
ELISA Competition, rGHBP, +BSA (rGHBP [1]; BSA 1 μM): 0.44
ELISA Competition, rGHBP, +bGH (rGHBP [1]; bovine GH 1 μM as competitor): 0.16
ELISA Competition, rGHBP, none (rGHBP [1]; no competitor): 0.45
saturation of receptors (rGHBP [2]; TRFD): could not be saturated
ELISA Competition, ‘hu’GHBP, +BSA ([3]; BSA 1 μM): 0.11
ELISA Competition, ‘hu’GHBP, +hGH ([3]; huGH 1 μM as competitor): 0.12
ELISA Competition, ‘hu’GHBP, none ([3]; no competitor): 0.14

human GH: human growth hormone
binding to ‘hu’ GHBP (‘hu’ GHBP): bound to human GH

C[S+](C)[O-] [DMSO]
IC50 vs. bGH (rGHBP [2]; TRFD, DMSO effect on bGH binding): >>3%
IC50 vs. bP#418 (SEQ ID NO: 12) (rGHBP [2]; TRFD, DMSO effect on bP#418 binding): >>3%
IC50 vs. bP#447 (SEQ ID NO: 11) (rGHBP [2]; TRFD, DMSO effect on bP#447 binding): >>3%
DMSO IC50 (rGHBP [2]; specific binding of bGH (3 nM), bP#447 (0.3 μM) and bP#418 (0.3 μM), 0 to 20% DMSO): > 15 % (v/v)

B1: GH: non-biotinylated growth hormone, the cognate ligand of GHBP (protein, UniProt P01244 27-216, looked up)
Somatotropin: FPAMPLSSLFANAVLRAQHLHQLAADTYKEFERAYIPEGQRYSIQNAQAAFCFSETIPAPTGKEEAQQRTDMELLRFSLLLIQSWLGPVQFLSRIFTNSLMFGTSDRVYEKLKDLEEGIQALMQELEDGSPRIGQILKQTYDKFDANMRSDDALLKNYGLLSCFKKDLHKAETYLRVMKCRRFAESSCAF
IC50 (rGHBP [2]; TRFD, competition of bGH (2 nM) binding, read-out: IC50 vs. bGH): 5 nM
IC50 (rGHBP [2]; TRFD, competition of bP#418 (300 nM) binding, read-out: IC50 vs. bP#418 (SEQ ID NO: 12)): 2 nM
IC50 (rGHBP [2]; TRFD, competition of bP#447 (300 nM) binding, read-out: IC50 vs. bP#447 (SEQ ID NO: 11)): 0.4 nM

B2: bGH: biotinylated GH used as bLigand in the TRFD assay (protein, UniProt P01244 27-216, looked up)
Somatotropin: FPAMPLSSLFANAVLRAQHLHQLAADTYKEFERAYIPEGQRYSIQNAQAAFCFSETIPAPTGKEEAQQRTDMELLRFSLLLIQSWLGPVQFLSRIFTNSLMFGTSDRVYEKLKDLEEGIQALMQELEDGSPRIGQILKQTYDKFDANMRSDDALLKNYGLLSCFKKDLHKAETYLRVMKCRRFAESSCAF
modifications: biotin
notes: biotinylated GH used as bLigand in the TRFD assay
EC50 (rGHBP [2]; TRFD, wells coated with rGHBP 100 ng/well, read-out: ED50 (half-maximum specific binding)): ~20 nM and 20 nM

B3: rat GH: rat growth hormone (protein, UniProt P01244 27-216, looked up)
Somatotropin: FPAMPLSSLFANAVLRAQHLHQLAADTYKEFERAYIPEGQRYSIQNAQAAFCFSETIPAPTGKEEAQQRTDMELLRFSLLLIQSWLGPVQFLSRIFTNSLMFGTSDRVYEKLKDLEEGIQALMQELEDGSPRIGQILKQTYDKFDANMRSDDALLKNYGLLSCFKKDLHKAETYLRVMKCRRFAESSCAF
binding to ‘hu’ GHBP (‘hu’ GHBP): failed to bind

B4: bovine GH: bovine growth hormone (protein)
chain: AFPAMSLSGLFANAVLRAQHLHQLAADTFKEFERTYIPEGQRYSIQNTQVAFCFSETIPAPTGKNEAQQKSDLELLRISLLLIQSWLGPLQFLSRVFTNSLVFGTSDRVYEKLKDLEEGILALMRELEDGTPRAGQILKQTYDKFDTNMRSDDALLKNYGLLSCFRKDLHKTETYLRVMKCRRFGEASCAF
binding to ‘hu’ GHBP (‘hu’ GHBP): failed to bind
